This assay deals with Lag3 (lymphocyte-activation gene 3), on transfected SH-SY5Y cells (not stated (human or mouse cDNA cloned)) (UniProt Q61790). Put plainly: cell surface binding assay (streptavidin-alkaline phosphatase staining); SH-SY5Y cells transfected with Lag3 or its deletion mutants; biotin-labelled ligand at different concentrations (monomer equivalent) in DMEM with 10% FBS, 2 h at RT; washed, fixed, bound biotin detected with streptavidin-AP and BCIP/NBT; intensity by ImageJ, KD by GraphPad Prism.

What is called Kd is a measure of binding affinity in units of concentration.

Lag3 (lymphocyte-activation gene 3), on transfected SH-SY5Y cells (not stated (human or mouse cDNA cloned)), sequence (Q61790 24-521): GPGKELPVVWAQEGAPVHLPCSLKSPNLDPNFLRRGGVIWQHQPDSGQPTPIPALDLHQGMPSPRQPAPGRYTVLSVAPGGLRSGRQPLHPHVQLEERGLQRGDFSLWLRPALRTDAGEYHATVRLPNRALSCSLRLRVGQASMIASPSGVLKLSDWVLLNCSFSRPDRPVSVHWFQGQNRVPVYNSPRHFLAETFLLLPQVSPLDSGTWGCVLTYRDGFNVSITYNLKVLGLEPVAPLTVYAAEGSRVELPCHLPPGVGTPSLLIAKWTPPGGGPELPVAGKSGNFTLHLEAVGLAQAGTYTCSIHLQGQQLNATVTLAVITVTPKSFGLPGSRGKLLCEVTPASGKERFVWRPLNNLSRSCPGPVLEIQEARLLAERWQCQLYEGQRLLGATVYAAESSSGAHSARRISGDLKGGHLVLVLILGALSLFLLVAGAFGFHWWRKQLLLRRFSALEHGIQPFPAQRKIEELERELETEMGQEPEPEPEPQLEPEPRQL

Take “Tau PFF derived from PSP (progressive supranuclear palsy) seeds”: the dissociation constant (Kd) is 227 nM.

The record behind these values is paper PMC11040377.
